Results reported in patent publication US9403875B2, “Cage-like bifunctional chelators, copper-64 radiopharmaceuticals and PET imaging using the same” (UNIVERSITY OF SOUTHERN CALIFORNIA, priority 2009, dated 2016).
Like-named read-outs stand apart in the source and are kept apart here.

Key:
[1] = Log P of 64Cu-labeled RGD conjugates (1-octanol/PBS); type: physicochemical; conditions: pH 7.4, read-out: log P (octanol/water partition coefficient)
Method: After vigorously vortexing for 10 min, the vial was centrifuged for 5 min to ensure the complete separation of layers. Then, 3×10 μL of each layer was pipetted into other test tubes and radioactivity was measured using a gamma counter (Perkin-Elmer Packard Cobra). The measurement was repeated three times, and Log P values were calculated according to a known formula.

[2] = MicroPET imaging of U87 MG tumor-bearing nude mice; type: in vivo, athymic nude mice; conditions: athymic nude, mouse, in vivo, iv, 11.1 MBq, total radioactivity
Method: (§1) Athymic nude mice (about 10-20 weeks old, with a body weight of 25-35 g) were obtained from Harlan (Charles River, Mass.). All animal experiments were performed according to a protocol approved by University of Southern California Institutional Animal Care and Use Committee. The U87 MG human glioma xenograft model was generated by subcutaneous injection of 5×10^6 U87 MG human glioma cells into the front flank of athymic nude mice. The tumors were allowed to grow 3-5 weeks until 200-500 mm^3 in volume. Tumor growth was followed by caliper measurements of the perpendicular dimensions.
(§2) MicroPET scans and imaging analysis were performed using a rodent scanner (microPET R4; Siemens Medical Solutions) as previously reported (26). Li, Z., Cai, W., Cao, Q., Chen, K., Wu, Z., He, L., and Chen, X. (2007) ^64Cu-labeled tetrameric and octameric RGD peptides for small-animal PET of tumor αvβ3 integrin expression. J Nucl Med 48, 1162-71. […] Ten minute static scans were acquired at 1, 2, 4, and 20 h post injection. The images were reconstructed by a 2-dimensional ordered-subsets expectation maximum (OSEM) algorithm. For each microPET scan, regions of interest were drawn over the tumor, normal tissue, and major organs on the decay-corrected whole-body coronal images. The radioactivity concentration (accumulation) within the tumor, muscle, liver, and kidneys were obtained from the mean value within the multiple regions of interest and then converted to % ID/g.

[3] = test system: U87 MG human glioma xenograft tumors; assay: MicroPET imaging of U87 MG tumor-bearing nude mice; type: in vivo, athymic nude mice; conditions: for uptake in U87 MG tumors: microPET
Method: as §1, §2

[4] = Biodistribution by direct tissue sampling in U87 MG tumor bearing nude mice; conditions: athymic nude, mouse, in vivo, 0.37 MBq, total radioactivity
Method: All mice were sacrificed and dissected at 20 h after the injection of the tracers. Blood, U87 MG tumor, major organs, and tissues were collected and weighed wet. The radioactivity in the tissues was measured using the gamma counter. The results were presented as percentage injected dose per gram of tissue (% ID/g). For each mouse, the radioactivity of the tissue samples was calibrated against a known aliquot of the injected activity. Mean uptake (% ID/g) for each group of animals was calculated with standard deviations.
To validate the accuracy of small animal PET quantification, we also performed a biodistribution experiment by using the direct tissue sampling technique. The data shown as the percentage administered activity (injected dose) per gram of tissue (% ID/g) in FIG. 19A. Both ^64Cu-AmBaSar-RGD and ^64Cu-DOTA-RGD mainly accumulated in kidneys, liver, stomach, intestine, and tumor. […] This difference was consistent with the excretion pattern from the microPET imaging results.

[5] = test system: U87 MG human glioblastoma cell line (integrin αvβ3-positive); assay: Cell uptake study in U87 MG cells; type: cell-based; conditions: blocking with excess cold cyclic RGD
Method: U87 MG human glioblastoma cell line (integrin αvβ3-positive) was obtained from the American Type Culture Collection (ATCC, Manassas, Va.) and maintained under standard conditions according to ATCC as following: The U87 MG glioma cells were grown in Gibco's Dulbecco's medium supplemented with 10% fetal bovine serum (FBS), 100 IU/mL penicillin, and 100 μg/mL streptomycin (Invitrogen Co, Carlsbad, Calif.), at 37° C. in humidified atmosphere containing 5% CO2. The U87 MG glioma cells were grown in culture until sufficient cells were available.
The cell uptake study was performed as described in the literature with some modifications. […] The tumor cells were then washed three times with chilled PBS and harvested by 0.1 N NaOH solution containing 0.5% sodium dodecyl sulfate (SDS). The cell suspensions were collected and measured in the gamma counter.

[6] = Metabolic stability in U87 MG tumor-bearing mouse (radio-HPLC of blood and tissue homogenates); type: in vivo, athymic nude mouse; conditions: 1 h post injection, i.v.
Method: The blood was collected and immediately centrifuged for 5 min at 13,200 rpm, and the upper serum solution was added to 100 μL PBS solution containing 50% TFA, followed by mixing and centrifugation for 10 min, and the upper solution was then taken out and filtered for HPLC analysis. Liver, kidneys, and tumor were homogenized using a homogenizer, suspended in 1 mL of PBS buffer, and centrifuged for 10 min at 14,000 rpm, respectively. For each sample, after removal of the supernatant, the solution was added to 100 μL PBS solution containing 50% TFA, followed by mixing and centrifugation for 10 min, and the upper solution was then taken and filtered for HPLC analysis. Radioactivity was monitored using a solid-state radiation detector. The eluent was also collected using a fraction collector (1.5 min/fraction) and the radioactivity of each fraction was measured with the γ counter.

[7] = In vitro stability of 64Cu-labeled RGD conjugates in PBS, FBS and mouse serum; type: in vitro ADME; conditions: 37° C., 24 h incubation; for remaining at 24 h, 3.7 MBq/mL: read-out: radiochemical purity / tracer remained intact
Method: After incubated at 37° C. for 3, 18, and 24 h, an aliquot of the mixture was removed from the PBS solution and the radiochemical purity was determined with HPLC. For the solution of FBS and mouse serum, the aliquots were added to 100 μL PBS with 50% TFA. After centrifugation, the upper solution was taken and filtered for HPLC analysis.

[8] = MicroPET imaging of radiolabeled BFCs in Balb/c mice; type: in vivo; conditions: between 30 min and 2 hours, micro-PET region of interest quantification
Method: MicroPET imaging and biodistribution studies were performed with the non-targeted ^64Cu-AmBaSar and ^64Cu-DOTA complexes to allow a comparison of their base-line organ uptake and clearance properties. After 30 min, the radioactivity quickly cleared from muscle and blood, and mainly localized in the bladder and kidneys. Regarding ^64Cu-DOTA, the radioactivity mainly localized in the bladder, kidneys, and liver.
MicroPET imaging and biodistribution of the radiolabeled BFCs were performed on Balb/c mice to evaluate their in vivo properties. Animals (Balb/c, n=2) were injected with 0.3 mCi ^64Cu-AmBaSar or ^64Cu-DOTA through the tail vein. PET imaging (10-min static scans) was performed using a microPET R4 scanner (Concorde Microsystems, Inc, Knoxville, Tenn.), with 120 transaxial planes and spatial resolution of 1.2 mm, at 30 min and 2 h postinjection. The microPET data were reconstructed using the ordered subsets expectation maximization (OSEM) algorithm using the microPET Manager Software (CTI Concorde Microsystems, Inc, Knoxville, Tenn.). Images were then analyzed using the Acquisition Sinogram Image Processing (ASIPro) software (CTI Concorde Microsystems, Inc, Knoxville, Tenn.).

[9] = Lipophilicity (octanol/water partition coefficient) of 64Cu-AmBaSar and 64Cu-DOTA; type: physicochemical; conditions: 1-octanol/PBS, pH 7.4
Method: Information about the lipophilicity of the ^64Cu-AmBaSar and ^64Cu-DOTA was obtained by measuring their partitioning in a 1-octanol/water system. Counts in samples were used to determine partition coefficients (log P) values, calculated using a known formula. The log P values were measured at pH 7.4 in PBS. The log P value of ^64Cu-AmBaSar is −2.6, and the corresponding value of ^64Cu-DOTA is −2.3. Both ^64Cu-AmBaSar and ^64Cu-DOTA are hydrophilic.
The partition coefficient value was expressed as log P. Log P of ^64Cu-AmBaSar or ^64Cu-DOTA was determined by measuring the distribution of radioactivity in 1-octanol and PBS. A 5 μL sample of ^64Cu-AmBaSar or ^64Cu-DOTA in PBS was added to a vial containing 1 mL each of 1-octanol and PBS. After vortexing for 5 min, the vial was centrifuged for 5 min to ensure complete separation of layers. Then, 5 μL of each layer was pipetted into other test tubes and radioactivity was measured using a gamma counter (Packard). The measurement was repeated three times.

[10] = Biodistribution of radiolabeled BFCs in Balb/c mice; type: in vivo
Method: The biodistribution of ^64Cu-AmBaSar and ^64Cu-DOTA were assessed in Balb/c mice. Each animal was sacrificed at the time interval 2 h and the organs dissected. The values of percent injected dose/gram (ID/g %) in different organs were compared and illustrated in FIG. 13. The ^64Cu-AmBaSar cleared rapidly from the blood and predominantly through the kidneys. After 2 h, the kidney and liver uptake reached 1.09±0.27, 0.14±0.01% ID/g, respectively, which is consistent with the excretion pattern from the microPET imaging results. The ^64Cu-DOTA cleared through the kidney and liver, with uptake reached 1.28±0.41, 1.25±0.09, respectively, by 2 h.
For biodistribution studies, one group of mice (Balb/c, n=3) was injected intravenously with the radiotracer ^64Cu-AmBaSar (10 μCi, 100 μL). Another group of mice was injected similarly with ^64Cu-DOTA (10 μCi, 100 μL). Activity injected into each mouse was measured in a dose calibrator (Capintec). After inhalation anesthesia, animals were sacrificed at 2 h postinjection. Tissues and organs of interest were separated and weighed. Radioactivity in each organ was measured using a gamma counter, and radioactivity uptake was expressed as % ID/g. Mean uptake (% ID/g) for each group of animals was calculated with standard deviations.

[11] = 2 h postinjection, Balb/c mice, i.v.

## N=C(N)NCCC[C@@H]1NC(=O)[C@H](CCCCNC(=O)c2ccc(CNC34CNCCNCC(N)(CNCCNC3)CNCCNC4)cc2)NC(=O)[C@@H](Cc2ccc(O)cc2)NC(=O)[C@H](CC(=O)O)NC(=O)CNC1=O [^64Cu-AmBaSar-RGD, metal not drawn]
[1]
  logP: -2.44 ± 0.12
[2]; microPET, 1 h p.i., read-out: liver uptake
  tissue uptake at 1 h: 0.89 ± 0.13 %ID/g
[2]; microPET, 1 h p.i., read-out: renal uptake
  tissue uptake at 1 h: 2.83 ± 0.77 %ID/g
[2]; microPET, 2 h p.i., read-out: liver uptake
  tissue uptake at 2 h: 0.76 ± 0.13 %ID/g
[2]; microPET, 2 h p.i., read-out: renal uptake
  tissue uptake at 2 h: 2.68 ± 0.55 %ID/g
[2]; microPET, 4 h p.i., read-out: liver uptake
  tissue uptake at 4 h: 0.75 ± 0.14 %ID/g
[2]; microPET, 4 h p.i., read-out: renal uptake
  tissue uptake at 4 h: 2.49 ± 0.5 %ID/g
[2]; microPET, 20 h p.i., read-out: liver uptake
  tissue uptake at 20 h: 0.64 ± 0.06 %ID/g
[2]; microPET, 20 h p.i., read-out: renal uptake
  tissue uptake at 20 h: 1.43 ± 0.35 %ID/g
[3]; 1 h p.i.
  uptake in U87 MG tumors: 2.04±0.14 % ID/g
[3]; 4 h p.i.
  uptake in U87 MG tumors: 1.87±0.11 % ID/g
[3]; 20 h p.i.
  uptake in U87 MG tumors: 0.97±0.05 % ID/g
[4]; direct tissue sampling, 20 h p.i., read-out: kidneys uptake
  tissue uptake at 20 h: 1.51 ± 0.27 %ID/g
[4]; direct tissue sampling, 20 h p.i., read-out: liver uptake
  tissue uptake at 20 h: 0.55 ± 0.06 %ID/g
[5]
  binding to U87 MG cells in presence of excess cold cyclic RGD peptide: efficiently blocked
[6]
  amount of intact tracer in the blood: approximately 88%
  amount of intact tracer in the kidneys: ~98%
  amount of intact tracer in the liver: ~98%
  amount of intact tracer in the tumor: ~95%
[7]; PBS or FBS
  radiochemical purity / tracer remained intact: more than 97%
[7]; mouse serum
  radiochemical purity / tracer remained intact: > 95%
  remaining at 24 h, 3.7 MBq/mL: > 95%
[7]; serum, pH 7.4, PBS or FBS
  remaining at 24 h, 3.7 MBq/mL: > 97%

## N=C(N)NCCC[C@@H]1NC(=O)[C@H](CCCCNC(=O)CN2CCN(CC(=O)O)CCN(CC(=O)O)CCN(CC(=O)O)CC2)NC(=O)[C@@H](Cc2ccc(O)cc2)NC(=O)[C@H](CC(=O)O)NC(=O)CNC1=O [^64Cu-DOTA-RGD, metal not drawn]
[2]; liver uptake
  tissue uptake at 1 h: 2.28 ± 1.08 %ID/g
  tissue uptake at 2 h: 2.31 ± 1.34 %ID/g
  tissue uptake at 4 h: 2.15 ± 0.9 %ID/g
  tissue uptake at 20 h: 2.52 ± 1.43 %ID/g
[2]; renal uptake
  tissue uptake at 1 h: 1.52 ± 0.46 %ID/g
  tissue uptake at 2 h: 1.33 ± 0.23 %ID/g
  tissue uptake at 4 h: 1.55 ± 0.61 %ID/g
  tissue uptake at 20 h: 1.58 ± 0.13 %ID/g
[3]; 1 h p.i.
  uptake in U87 MG tumors: 2.03±0.10 % ID/g
[3]; 2 h p.i.
  uptake in U87 MG tumors: 1.97±0.05 % ID/g
[3]; 4 h p.i.
  uptake in U87 MG tumors: 1.88±0.29 % ID/g
[3]; 20 h p.i.
  uptake in U87 MG tumors: 0.88±0.07 % ID/g
[3]; mouse, in vivo
  liver uptake compared with 64Cu-AmBaSar-RGD: 2-3 times
[4]; kidneys uptake
  tissue uptake at 20 h: 0.98 ± 0.4 %ID/g
[4]; liver uptake
  tissue uptake at 20 h: 2.16 ± 0.85 %ID/g
[5]
  binding to U87 MG cells in presence of excess cold cyclic RGD peptide: efficiently blocked

## O=C([O-])CN1CCN(CC(=O)[O-])CCN(CC(=O)O)CCN(CC(=O)O)CC1.[64Cu+2] [^64Cu-DOTA]
[8]
  decrease of renal activity: 66%
[9]
  log P: −2.3
[10]; 2 h post injection
  liver uptake relative to 64Cu-AmBaSar: eight times higher
[10]; [11]
  kidney uptake: 1.28±0.41 % ID/g
  liver uptake: 1.25±0.09 % ID/g
